Our source for the Kd, EC50 and IC50 values is patent publication US20190233519A1 (published 2019).

Read-outs that look alike come from different tables or passages of the source.

As a reminder, the Kd is a measure of binding affinity in units of concentration. As usually defined, the EC50 is the concentration at which the effect is half-maximal. Low readings indicate an effect from little substance, high ones a need for much substance. By IC50 is commonly meant the point on the concentration scale where inhibition reaches its midpoint. A low value points to higher potency.

The target in assay [1] is CTLA-4/Fc. In words: SPR. In general terms: In SPR one partner is held on a chip, and binding of the other changes the refractive index at the surface.
In assay [2] the target is T1, human CTLA-4 expressed on CHO cells (UniProt P16410 37-223). In words: FACS cell binding.
Assay [3] concerns the target T2, PD-1-His protein (UniProt Q15116 25-167). The experiment in a line: SPR.
Assay [4] addresses T3, CTLA-4-His protein (UniProt P16410 37-161). In words: SPR.
In assay [5] the target is T4, biotin-labeled hCTLA-4/Fc protein (UniProt P16410 37-161, biotin label in the FACS competition assays (sites not given)). In words: FACS ligand competition.
For assay [6], the target named is hPD-1-Fc fusion protein having a biotin label (human, UniProt Q15116 25-167, biotin label (sites not given)). In words: FACS ligand competition.
For assay [7], the target named is T5, human PD-1 expressed on CHO cells (human, UniProt Q15116 25-288). In words: FACS cell binding.
In assay [8] the target is T3, CTLA-4-His protein. In words: SPR. The source holds these as a separate data set.
In assay [9] the target is T5, human PD-1 expressed on CHO cells. The experiment in a line: FACS ligand competition (hPD-L1 Fc).
Assay [10] concerns the target T2, PD-1-His protein. The experiment in a line: SPR. The source holds these as a separate data set.
Assay [11] addresses T4, biotin-labeled hCTLA-4/Fc protein. The experiment in a line: FACS ligand competition (B7-1 cells).
The target in assay [12] is T1, human CTLA-4 expressed on CHO cells. In words: FACS cell binding. This is another data set of the same source.
Assay [13] deals with T3, CTLA-4-His protein. In words: SPR. The source holds these as a separate data set.
The target in assay [14] is T4, biotin-labeled hCTLA-4/Fc protein. In words: FACS ligand competition. The source holds these as a separate data set.
Assay [15] shares this target. The experiment in a line: FACS ligand competition (B7-1 cells). This is another data set of the same source.

T4 sequence (P16410 37-161): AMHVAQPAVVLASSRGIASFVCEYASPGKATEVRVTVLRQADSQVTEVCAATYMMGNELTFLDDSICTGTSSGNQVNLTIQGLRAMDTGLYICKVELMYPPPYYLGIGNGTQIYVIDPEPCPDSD
T3 sequence (P16410 37-161): as above
T2 sequence (Q15116 25-167): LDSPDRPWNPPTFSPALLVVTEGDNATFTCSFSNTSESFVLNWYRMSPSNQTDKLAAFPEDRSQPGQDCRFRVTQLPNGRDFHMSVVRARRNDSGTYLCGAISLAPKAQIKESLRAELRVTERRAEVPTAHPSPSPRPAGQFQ
hPD-1-Fc fusion protein having a biotin label, sequence (Q15116 25-167): as above
T1 sequence (P16410 37-223): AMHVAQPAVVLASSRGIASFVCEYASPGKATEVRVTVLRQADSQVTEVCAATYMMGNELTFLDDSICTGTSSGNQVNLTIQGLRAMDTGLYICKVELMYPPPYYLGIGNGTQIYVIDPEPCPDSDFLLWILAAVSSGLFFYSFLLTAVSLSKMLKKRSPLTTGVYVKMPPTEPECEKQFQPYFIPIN
T5 sequence (Q15116 25-288): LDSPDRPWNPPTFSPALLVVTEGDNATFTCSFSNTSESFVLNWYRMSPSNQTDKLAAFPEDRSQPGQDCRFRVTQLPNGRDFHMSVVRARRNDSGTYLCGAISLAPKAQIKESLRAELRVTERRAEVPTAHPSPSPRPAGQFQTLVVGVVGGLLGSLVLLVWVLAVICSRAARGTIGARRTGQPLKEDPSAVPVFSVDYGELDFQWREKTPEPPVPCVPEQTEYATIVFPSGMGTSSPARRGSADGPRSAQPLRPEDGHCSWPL

B1: A34311 sdAb (VHH)
VHH: QVKLEESGGGLVLPGESLRLSCEASGRTITTITMGWFRQAPGKERQFVASHSWTDNNPYYADSVKGRFIISRDNAGNRVYLQMHSLEPEDTAVYYCAATARRSFVGRQWYTEARQYDYWGQGTQVTVSS
With B1, binding in assay [1] was put at a Kd of 4.96 nM.

B2: AS02640 sdAb (VHH)
VHH: QVQLVESGGGVVQPGRSLRLSCAASGRTITTITMGWFRQAPGKGLEFVASHSWTDNNPYYADSVKGRFIISRDNSKNRLYLQMNSLRAEDTAVYYCAATARRSFVGRQWYTEARQYDYWGQGTLVTVSS
Take B2: in assay [1], the dissociation constant Kd stood at 2.95 nM.

B3: BCP-78 (A34311VH11-mutated hIgG1 hinge-Opdivo) (bispecific antibody)
heavy: EVQLVESGGGVVQPGRSLRLSCAASGRTITTITMGWFRQAPGKGREFVASHSWTDNNPYYADSVKGRFTISRDNAKNTLYLQMNSLRPEDTAVYYCAATARRSFVGRQWYTEARQYDYWGQGTLVTVSSEPKSSDKTHTSPPSPQVQLVESGGGVVQPGRSLRLDCKASGITFSNSGMHWVRQAPGKGLEWVAVIWYDGSKRYYADSVKGRFTISRDNSKNTLFLQMNSLRAEDTAVYYCATNDDYWGQGTLVTVSSASTKGPSVFPLAPCSRSTSESTAALGCLVKDYFPEPVTVSWNSGALTSGVHTFPAVLQSSGLYSLSSVVTVPSSSLGTKTYTCNVDHKPSNTKVDKRVESKYGPPCPPCPAPEFLGGPSVFLFPPKPKDTLMISRTPEVTCVVVDVSQEDPEVQFNWYVDGVEVHNAKTKPREEQFNSTYRVVSVLTVLHQDWLNGKEYKCKVSNKGLPSSIEKTISKAKGQPREPQVYTLPPSQEEMTKNQVSLTCLVKGFYPSDIAVEWESNGQPENNYKTTPPVLDSDGSFFLYSRLVDKSRWQEGNVFSCSVMHEALHNHYTQKSLSLSLGK
light: not shown
In the case of B3, the EC50 in [2] came to 2.7 nM; in [7], 1.7 nM. Moreover, the figures for the Kd in assay [3] and in assay [4] were 8.1 nM and 6.6 nM, respectively. Further, the IC50 in assay [5] amounted to 7.1 nM; in assay [6] it was 4.8 nM.

B4: BCP-2 (BCP-K311) (Keytruda-9GS-A34311) (bispecific antibody)
heavy: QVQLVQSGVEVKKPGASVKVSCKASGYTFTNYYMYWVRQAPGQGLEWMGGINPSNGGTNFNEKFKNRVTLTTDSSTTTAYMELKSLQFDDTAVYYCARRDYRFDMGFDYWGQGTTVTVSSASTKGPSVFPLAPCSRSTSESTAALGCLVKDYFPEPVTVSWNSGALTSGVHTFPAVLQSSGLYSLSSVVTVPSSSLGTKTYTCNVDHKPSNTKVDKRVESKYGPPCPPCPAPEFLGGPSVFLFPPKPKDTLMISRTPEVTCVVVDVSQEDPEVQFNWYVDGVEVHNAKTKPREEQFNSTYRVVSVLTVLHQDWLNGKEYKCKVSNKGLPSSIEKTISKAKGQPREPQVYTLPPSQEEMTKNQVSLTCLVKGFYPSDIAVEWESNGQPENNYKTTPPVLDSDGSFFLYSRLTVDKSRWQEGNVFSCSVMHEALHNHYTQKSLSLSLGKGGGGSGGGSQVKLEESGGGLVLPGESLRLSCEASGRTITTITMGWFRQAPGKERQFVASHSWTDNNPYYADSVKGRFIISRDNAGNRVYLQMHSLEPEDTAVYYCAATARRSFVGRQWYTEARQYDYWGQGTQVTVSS
light: EIVLTQSPATLSLSPGERATLSCRASKGVSTSGYSYLHWYQQKPGQAPRLLIYLASYLESGVPARFSGSGSGTDFTLTISSLEPEDFAVYYCQHSRDLPLTFGGGTKVEIKRTVAAPSVFIFPPSDEQLKSGTASVVCLLNNFYPREAKVQWKVDNALQSGNSQESVTEQDSKDSTYSLSSTLTLSKADYEKHKVYACEVTHQGLSSPVTKSFNRGEC
Take B4: the dissociation constant (Kd) in [8] was found to be 28.4 nM; in [4], 28 nM; in assay [10], 7.63 nM. Also, the IC50 in assay [9] was determined as 16.5 nM.

B5: BCP-311K (A34311-9GS-Keytruda) (bispecific antibody)
heavy: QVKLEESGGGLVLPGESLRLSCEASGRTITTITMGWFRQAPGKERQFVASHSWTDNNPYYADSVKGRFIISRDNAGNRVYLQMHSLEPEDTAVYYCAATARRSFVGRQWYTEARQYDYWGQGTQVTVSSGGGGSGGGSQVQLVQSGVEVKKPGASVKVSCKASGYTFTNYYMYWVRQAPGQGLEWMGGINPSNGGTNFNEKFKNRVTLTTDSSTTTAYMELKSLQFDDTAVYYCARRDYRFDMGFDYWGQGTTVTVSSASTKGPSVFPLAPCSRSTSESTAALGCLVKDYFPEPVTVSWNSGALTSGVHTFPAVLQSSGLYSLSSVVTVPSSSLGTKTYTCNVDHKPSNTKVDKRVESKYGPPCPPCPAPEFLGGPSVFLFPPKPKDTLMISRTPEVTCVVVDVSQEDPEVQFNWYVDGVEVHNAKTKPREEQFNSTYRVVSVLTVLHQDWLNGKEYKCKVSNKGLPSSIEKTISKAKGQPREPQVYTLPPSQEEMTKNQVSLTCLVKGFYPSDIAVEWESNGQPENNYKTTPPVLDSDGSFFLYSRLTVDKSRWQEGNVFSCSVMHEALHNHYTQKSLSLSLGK
light: EIVLTQSPATLSLSPGERATLSCRASKGVSTSGYSYLHWYQQKPGQAPRLLIYLASYLESGVPARFSGSGSGTDFTLTISSLEPEDFAVYYCQHSRDLPLTFGGGTKVEIKRTVAAPSVFIFPPSDEQLKSGTASVVCLLNNFYPREAKVQWKVDNALQSGNSQESVTEQDSKDSTYSLSSTLTLSKADYEKHKVYACEVTHQGLSSPVTKSFNRGEC
As for B5, the Kd in assay [8] came to 13 nM; in assay [4], 13 nM; in assay [10], 11.1 nM. In addition, the IC50 in assay [9] worked out at 33.7 nM. In assay [11], this molecule returned an EC50 of 41.9 nM.

B6: BCP-75 (AS07189TKDVH11-mutated hIgG1 hinge-Keytruda) (bispecific antibody)
heavy: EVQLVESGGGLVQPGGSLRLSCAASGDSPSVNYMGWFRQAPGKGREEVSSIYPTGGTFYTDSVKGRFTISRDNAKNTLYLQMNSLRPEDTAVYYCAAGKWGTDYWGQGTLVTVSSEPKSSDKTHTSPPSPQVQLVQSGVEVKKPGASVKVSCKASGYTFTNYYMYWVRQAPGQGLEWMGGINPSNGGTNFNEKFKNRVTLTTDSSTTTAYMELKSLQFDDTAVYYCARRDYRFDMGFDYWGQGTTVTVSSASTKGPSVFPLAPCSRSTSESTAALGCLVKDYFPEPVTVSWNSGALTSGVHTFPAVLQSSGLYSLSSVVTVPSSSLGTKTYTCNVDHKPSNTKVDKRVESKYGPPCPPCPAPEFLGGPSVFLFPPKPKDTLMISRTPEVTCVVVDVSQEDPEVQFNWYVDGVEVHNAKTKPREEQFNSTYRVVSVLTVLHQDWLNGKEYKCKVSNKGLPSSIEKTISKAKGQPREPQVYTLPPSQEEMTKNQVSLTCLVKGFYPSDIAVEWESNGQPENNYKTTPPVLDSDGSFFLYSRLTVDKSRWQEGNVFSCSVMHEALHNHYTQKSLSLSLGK
light: EIVLTQSPATLSLSPGERATLSCRASKGVSTSGYSYLHWYQQKPGQAPRLLIYLASYLESGVPARFSGSGSGTDFTLTISSLEPEDFAVYYCQHSRDLPLTFGGGTKVEIKRTVAAPSVFIFPPSDEQLKSGTASVVCLLNNFYPREAKVQWKVDNALQSGNSQESVTEQDSKDSTYSLSSTLTLSKADYEKHKVYACEVTHQGLSSPVTKSFNRGEC
Consider B6, for which the EC50 in [2] was determined as 3 nM; in assay [7], 1.6 nM. Also, the results for the Kd in assay [3] and in [4] were 2.2 nM and 4 nM, respectively. For the same molecule, the results for the IC50 in assay [5] and in assay [6] were 11.7 nM and 1.5 nM, respectively.

B7: BCP-74 (AS07014VH11-mutated hIgG1 hinge-Keytruda) (bispecific antibody)
heavy: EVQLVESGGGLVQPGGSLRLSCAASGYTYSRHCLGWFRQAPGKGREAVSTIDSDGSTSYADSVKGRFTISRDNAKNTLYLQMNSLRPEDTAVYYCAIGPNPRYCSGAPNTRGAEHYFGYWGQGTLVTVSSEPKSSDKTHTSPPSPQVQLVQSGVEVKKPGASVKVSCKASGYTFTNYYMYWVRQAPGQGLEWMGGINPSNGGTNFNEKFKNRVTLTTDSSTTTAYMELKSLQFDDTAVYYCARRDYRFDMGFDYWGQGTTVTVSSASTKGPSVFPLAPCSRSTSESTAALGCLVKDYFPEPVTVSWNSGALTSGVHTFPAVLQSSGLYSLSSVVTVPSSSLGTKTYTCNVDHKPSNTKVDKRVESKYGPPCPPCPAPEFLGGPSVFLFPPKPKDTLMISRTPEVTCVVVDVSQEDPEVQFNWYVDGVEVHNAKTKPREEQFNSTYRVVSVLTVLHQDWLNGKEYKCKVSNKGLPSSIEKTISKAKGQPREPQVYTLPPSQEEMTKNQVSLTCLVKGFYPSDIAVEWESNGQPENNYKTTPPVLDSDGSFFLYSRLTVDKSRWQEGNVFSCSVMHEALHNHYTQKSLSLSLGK
light: EIVLTQSPATLSLSPGERATLSCRASKGVSTSGYSYLHWYQQKPGQAPRLLIYLASYLESGVPARFSGSGSGTDFTLTISSLEPEDFAVYYCQHSRDLPLTFGGGTKVEIKRTVAAPSVFIFPPSDEQLKSGTASVVCLLNNFYPREAKVQWKVDNALQSGNSQESVTEQDSKDSTYSLSSTLTLSKADYEKHKVYACEVTHQGLSSPVTKSFNRGEC
Take B7: the EC50 came out at 3.9 nM in assay [2] and 1.6 nM in assay [7]. Further, the results for the Kd in assay [3] and in assay [4] were 2.5 nM and 2.6 nM, respectively. The IC50 in [5] turned out to be 17.2 nM; in assay [6], 2.6 nM.

B8: BCP-73 (A34311VH11-mutated hIgG1 hinge-Keytruda) (bispecific antibody)
heavy: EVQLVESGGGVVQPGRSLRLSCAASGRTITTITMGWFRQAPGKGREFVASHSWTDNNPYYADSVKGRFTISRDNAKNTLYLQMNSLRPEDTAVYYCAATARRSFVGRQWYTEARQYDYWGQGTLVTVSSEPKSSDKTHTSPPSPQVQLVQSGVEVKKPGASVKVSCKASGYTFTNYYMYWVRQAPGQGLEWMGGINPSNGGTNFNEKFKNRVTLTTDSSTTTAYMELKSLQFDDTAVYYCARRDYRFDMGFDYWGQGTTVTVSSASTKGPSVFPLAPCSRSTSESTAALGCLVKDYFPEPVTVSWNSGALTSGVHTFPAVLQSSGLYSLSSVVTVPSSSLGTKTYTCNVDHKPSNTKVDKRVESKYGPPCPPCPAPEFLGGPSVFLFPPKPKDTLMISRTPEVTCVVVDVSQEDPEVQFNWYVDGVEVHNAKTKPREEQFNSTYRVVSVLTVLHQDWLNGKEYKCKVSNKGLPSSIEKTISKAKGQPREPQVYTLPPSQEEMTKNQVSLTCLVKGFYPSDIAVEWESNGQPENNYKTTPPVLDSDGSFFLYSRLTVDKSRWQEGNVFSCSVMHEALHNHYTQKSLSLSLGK
light: EIVLTQSPATLSLSPGERATLSCRASKGVSTSGYSYLHWYQQKPGQAPRLLIYLASYLESGVPARFSGSGSGTDFTLTISSLEPEDFAVYYCQHSRDLPLTFGGGTKVEIKRTVAAPSVFIFPPSDEQLKSGTASVVCLLNNFYPREAKVQWKVDNALQSGNSQESVTEQDSKDSTYSLSSTLTLSKADYEKHKVYACEVTHQGLSSPVTKSFNRGEC
As to B8, the concentration for a half-maximal effect (EC50) in assay [2] came out at 3 nM; in [7] it was 2.2 nM. Besides, the Kd in [3] and in [4] was 7.5 nM in each case. Moreover, the IC50 was 11.5 nM in assay [5] and 1.1 nM in assay [6].

B9: AS07189 HCAb (Fc fusion)
heavy: QVQLVESGGGSVQAGGSLRLSCAASGDSPSVNYMGWFRRAPEKQREQREEVASIYPTGGTFYTDSVKGRFTISRDNAKNTLYLQMTALKPEDTAMYYCAAGKWGTDYWGQGTQVIVSS
For B9, the EC50 in assay [12] was 6.8 nM. The molecule further returned a Kd in assay [13] of 3 nM. The IC50 in [14] was determined as 11.9 nM.

B10: AS07014 HCAb (Fc fusion)
heavy: QVHLVESGGGSVQAGGSLRLSCAASGYTYSRHCLGWFRQTPGKEREAVATIDSDGSTSYADSVKGRFTISSDNAKNTLYLQMNSLKPEDTAMYYCAIGPNPRYCSGAPNTRGAEHYFGYWAQGTQVTVSS
Turning to B10, the response in [12] was half-maximal at 15.3 nM (EC50). Besides, the Kd in assay [13] came to 1.1 nM. In assay [14], this molecule registered an IC50 of 12.3 nM.

B11: A36566 HCAb (Fc fusion)
heavy: EVQLVESGGGLVQVGDSLRLSCAASGRSFENYAIGWFRQAPGKEREFVATISWIPRTAYSTTYYADSVKGRFTISGDNSKNTVYLQMTSLKPEDTAVYYCAAGGATGPLALDSHYGYWGQGTQVTVSS
On to B11, for which the IC50 in [15] and in assay [14] was 6.6 nM each time.

B12: A36922 HCAb (Fc fusion)
heavy: QVQLVESGGGLVQAGGSLRLSCAASGRLSRTFTMGWYRQAPGKQRDLVASITTSGSTNYADSVKGRFTISRDNAKNTVILQMNSLVPEDTAVYYCRFLSASTAAWGQGTQVTIST
B12: the concentration for half-maximal inhibition (IC50) in assay [15] and in assay [14] was 14.1 nM throughout.
